Source: patent US8497083B2, “Fructosyl amino acid oxidase” (priority 2009, dated 2013)
Substitutions are numbered along the chain they refer to. In names and notes the source's numbering stands.

Key:
[1] = biological target: T1, fructosyl amino acid oxidase from Phaeosphaeria nodorum (PnFPOX, SEQ ID NO: 1) variant N56A (Parastagonospora nodorum, UniProt Q0UIL6, N56A); test: Dehydrogenase activity kinetics (mPMS/DCIP), PnFPOX N56A mutant; format: biochemical; conditions: purified enzyme, 25° C., pH 7.0
T1 sequence (Q0UIL6 whole entry N56A): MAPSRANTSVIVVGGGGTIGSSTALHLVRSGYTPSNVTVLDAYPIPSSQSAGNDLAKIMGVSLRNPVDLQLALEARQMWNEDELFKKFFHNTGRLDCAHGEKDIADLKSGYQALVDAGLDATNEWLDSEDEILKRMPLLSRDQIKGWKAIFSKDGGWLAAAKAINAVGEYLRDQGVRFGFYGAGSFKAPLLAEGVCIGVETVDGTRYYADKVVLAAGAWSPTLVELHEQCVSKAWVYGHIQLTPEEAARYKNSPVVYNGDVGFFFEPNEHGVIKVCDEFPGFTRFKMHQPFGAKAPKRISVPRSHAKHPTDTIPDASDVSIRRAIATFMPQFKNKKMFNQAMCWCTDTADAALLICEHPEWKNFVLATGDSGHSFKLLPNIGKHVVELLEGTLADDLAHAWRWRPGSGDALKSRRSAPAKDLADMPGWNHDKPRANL
Source text: (§1) As used herein, “dehydrogenase activity” is an enzymatic activity (Vmax) of the fructosyl amino acid oxidase to catalyze oxidation of fructosyl amino acid to generate 2-keto-D-glucose and the corresponding amino acid while utilizing an electron mediator other than oxygen as an electron acceptor. The dehydrogenase activity may be assayed by measuring the amount of electrons transferred to the mediator using, for example, one of mPMS/DCIP (1-methoxy-5-methylphenazinium methylsulfate/2,6-dichloroindophenol), cPES (trifluoro-acetate-1-(3-carboxy-propoxy)-5-ethyl-phenanzinium, NA BM31—1144 (N,N-bis-(hydroxyethyl)-3-methoxynitrosoaniline hydrochloride, NA BM31—1008 (N,N-bis-hydroxyethyl-4-nitrosoaniline) and N—N-4-dimethyl-nitrosoaniline.
(§2) As used herein in the context of the relative or quantitative activity, the dehydrogenase activity is specifically defined to be the mole amount of the substrate (fructosyl amino acid) oxidized per unit time measured by the amount of electrons transferred to the mediator at 25° C. in 10 mM PPB (pH 7.0), 0.6 mM DCIP, and 6 mM methoxy PMS (mPMS).
(§3) Escherichia coli BL21 (DE3) cells harboring expression vectors of N1-1 FAOD (SEQ ID NO: 2) mutants were grown in 150 ml of LB medium containing 50 μg/ml kanamycin at 37° C. After reaching an A660 value of 0.6, 0.3 mM IPTG was added and incubated at 25° C. for an additional 5 hours. The cells were collected by centrifugation and washed twice with 0.85% NaCl.aq. Then, the cells were resuspended in 10 mM Potassium Phosphate Buffer (PPB) pH 7.0 and lysed by ultrasonic homogenizer. The lysate was centrifuged at 10,000×g, 4° C. for 10 min, and the supernatant was centrifuged at 50,000 rpm, 4° C. for 60 min, then the supernatant was dialyzed against 10 mM PPB (pH 7.0). The oxidase activity was assayed at 25° C. in 10 mM PPB, pH 7.0, 1.5 mM TODB, 2 U/ml horseradish peroxidase (POD), and 1.5 mM 4-aminoantipyrine (4AA) in the presence of substrates (0.2, 0.5, 0.75, 1, 2, 5 mM f-^αVal […]). The formation of quinoneimine dye was measured spectrophotometrically at 546 nm. The dehydrogenase activity was assayed at 25° C. in 10 mM PPB (pH 7.0), 0.6 mM DCIP, and 6 mM methoxy PMS (mPMS) in the presence of substrates (0.2, 0.5, 1, 2, 5 mM f-^αVal or 5 mM f-^αVal-His).
(§4) Mutations were introduced using site-directed mutagenesis as in Example 1, and BL21 (DE3) cells were transformed with an expression vector containing wild-type or mutant PnFPOX (SEQ ID NO: 1). The cultured cells were resuspended in 10 mM PPB, pH 7.0, and lysed by sonication. The lysate was centrifuged at 10,000 g at 4° C. for 20 min, and the supernatant was centrifuged at 50,000 rpm at 4° C. for 60 min. The oxidase and dehydrogenase activities were measured as in Example 1. […]

[2] = biological target: T1, fructosyl amino acid oxidase from Phaeosphaeria nodorum (PnFPOX, SEQ ID NO: 1) variant N56A; test: Oxidase activity kinetics (4AA/TODB/POD), PnFPOX N56A mutant; format: biochemical; conditions: purified enzyme, 25° C., pH 7.0
Source text: (§5) As used herein “oxidase activity” is an enzymatic activity (Vmax) of the fructosyl amino acid oxidase to catalyze oxidation of fructosyl amino acid to generate 2-keto-D-glucose and the corresponding amino acid while utilizing oxygen as an electron acceptor. The oxidase activity may be assayed by measuring the amount of generated H2O2 by any methods known in the art, including by way of non-limiting example, reagents for H2O2 detection such as […] (4-aminoantipyrine/N,N-Bis(4-sulfobutyl)-3-methylaniline disodium salt/horseradish peroxidase) or by Pt electrode. As used herein in the context of the relative or quantitative activity, the oxidase activity is specifically defined to be the mole amount of the substrate (fructosyl amino acid) oxidized per unit time measured by the amount of generated H2O2 at 25° C. in 10 mM PPB, pH 7.0, 1.5 mM TODB, 2 U/ml horseradish peroxidase (POD), and 1.5 mM 4-aminoantipyrine (4AA). The formation of quinoneimine dye may be measured spectrophotometrically at 546 nm.
as §3
(§6) Mutations were introduced using site-directed mutagenesis as in Example 1, and BL21 (DE3) cells were transformed with an expression vector containing wild-type or mutant PnFPOX (SEQ ID NO: 1). The cultured cells were resuspended in 10 mM PPB, pH 7.0, and lysed by sonication. The lysate was centrifuged at 10,000 g at 4° C. for 20 min, and the supernatant was centrifuged at 50,000 rpm at 4° C. for 60 min. The oxidase and dehydrogenase activities were measured as in Example 1.
(§7) BL21 (DE3) transformed with pEPN (pET28a-PnFPOX)-N56A was grown aerobically at 37° C. in LB medium (2 l) containing 50 μg kanamycin ml^−1. […]

[3] = tested on: CC(C)[C@H](NCC1(O)OC[C@@H](O)[C@@H](O)[C@@H]1O)C(=O)O; test: Dehydrogenase activity kinetics (mPMS/DCIP), PnFPOX wild type; format: biochemical, Phaeosphaeria nodorum; conditions: other: mPMS/DCIP, 25° C., pH 7.0
Source text: As used herein, “dehydrogenase activity” is an enzymatic activity (Vmax) of the fructosyl amino acid oxidase to catalyze oxidation of fructosyl amino acid to generate 2-keto-D-glucose and the corresponding amino acid while utilizing an electron mediator other than oxygen as an electron acceptor. […]
as §2
Escherichia coli BL21 (DE3) cells harboring expression vectors of N1-1 FAOD (SEQ ID NO: 2) mutants were grown in 150 ml of LB medium containing 50 μg/ml kanamycin at 37° C. […] The formation of quinoneimine dye was measured spectrophotometrically at 546 nm. […]
Mutations were introduced using site-directed mutagenesis as in Example 1, and BL21 (DE3) cells were transformed with an expression vector containing wild-type or mutant PnFPOX (SEQ ID NO: 1). […] The oxidase and dehydrogenase activities were measured as in Example 1.
(§8) The oxidase and dehydrogenase activities of the N56A mutant FAOD were measured. […]

[4] = tested on: CC(C)[C@H](NCC1(O)OC[C@@H](O)[C@@H](O)[C@@H]1O)C(=O)N[C@@H](Cc1c[nH]cn1)C(=O)O; test: Oxidase activity kinetics (4AA/TODB/POD), PnFPOX wild type; format: biochemical, Phaeosphaeria nodorum; conditions: other: 4AA/TODB/POD, 25° C., pH 7.0
Source text: as §5, §3, §6, §8

[5] = tested on: CC(C)[C@H](NCC1(O)OC[C@@H](O)[C@@H](O)[C@@H]1O)C(=O)O; test: as above; format: biochemical, Phaeosphaeria nodorum; conditions: other: 4AA/TODB/POD, 25° C., pH 7.0
Source text: as §5, §3, §6, §8

[6] = tested on: CC(C)[C@H](NCC1(O)OC[C@@H](O)[C@@H](O)[C@@H]1O)C(=O)N[C@@H](Cc1c[nH]cn1)C(=O)O; test: Dehydrogenase activity kinetics (mPMS/DCIP), PnFPOX N56A mutant; format: biochemical, Phaeosphaeria nodorum; conditions: other: purified enzyme, 25° C., pH 7.0
Source text: as §1, §2, §3, §4

[7] = tested on: CC(C)[C@H](NCC1(O)OC[C@@H](O)[C@@H](O)[C@@H]1O)C(=O)O; test: as above; format: biochemical, Phaeosphaeria nodorum; conditions: other: purified enzyme, 25° C., pH 7.0
Source text: as §1, §2, §3, §4

[8] = tested on: CC(C)[C@H](NCC1(O)OC[C@@H](O)[C@@H](O)[C@@H]1O)C(=O)N[C@@H](Cc1c[nH]cn1)C(=O)O; test: Oxidase activity kinetics (4AA/TODB/POD), PnFPOX N56A mutant; format: biochemical, Phaeosphaeria nodorum; conditions: other: purified enzyme, 25° C., pH 7.0
Source text: as §5, §3, §6, §7

[9] = tested on: CC(C)[C@H](NCC1(O)OC[C@@H](O)[C@@H](O)[C@@H]1O)C(=O)O; test: as above; format: biochemical, Phaeosphaeria nodorum; conditions: other: purified enzyme, 25° C., pH 7.0
Source text: as §5, §3, §6, §7

[10] = substrate: CC(C)[C@H](NCC1(O)OC[C@@H](O)[C@@H](O)[C@@H]1O)C(=O)O; test: Oxidase activity kinetics (4AA/TODB/POD), N1-1 FAOD wild type; format: biochemical, Pichia sp. N1-1; conditions: 25° C., pH 7.0
Source text: as §5, §3
(§9) The recombinant FAOD was purified as follows. First, a water-soluble fraction containing the enzyme was prepared from recombinant Escherichia coli. E. coli containing the expression vector was cultured in 7 L LB medium (37° C., in 10 L fermenter, 50 μg/ml ampicillin), then the expression was induced with IPTG (final concentration: 0.3 mM) at about OD660=0.7 and culture temperature was lowered to 30° C. The cells were suspended in 100 mM PPb (pH 7.0) and disrupted four times using a French press. […]

[11] = substrate: CC(C)[C@H](NCC1(O)OC[C@@H](O)[C@@H](O)[C@@H]1O)C(=O)O; test: Dehydrogenase activity kinetics (mPMS/DCIP), N1-1 FAOD wild type; format: biochemical, Pichia sp. N1-1; conditions: 25° C., pH 7.0
Source text: as §1, §2, §3, §9

[12] = substrate: CC(C)[C@H](NCC1(O)OC[C@@H](O)[C@@H](O)[C@@H]1O)C(=O)O; test: Dehydrogenase activity kinetics (mPMS/DCIP), N1-1 FAOD N47A mutant; format: biochemical, Pichia sp. N1-1; conditions: 25° C., pH 7.0
Source text: as §1, §2, §3, §9

[13] = substrate: CC(C)[C@H](NCC1(O)OC[C@@H](O)[C@@H](O)[C@@H]1O)C(=O)O; test: Oxidase activity kinetics (4AA/TODB/POD), N1-1 FAOD N47A mutant; format: biochemical, Pichia sp. N1-1; conditions: 25° C., pH 7.0
Source text: as §5, §3, §9

CC(C)[C@H](NCC1(O)OC[C@@H](O)[C@@H](O)[C@@H]1O)C(=O)N[C@@H](Cc1cnc[nH]1)C(=O)O (stereo partly shown) [f-αValHis, fructosyl valyl histidine]
Vmax [1]: 3.40 U/mg | Vmax [2]: 1.90 U/mg

fructosyl amino acid oxidase from Phaeosphaeria nodorum (PnFPOX), wild type, SEQ ID NO: 1 (Parastagonospora nodorum SN15)
Km [3]: 1100 µM | Vmax [3]: 28.0 U/mg | Km [4]: 200 µM | Vmax [4]: 2.97 U/mg | Km [5]: 640 µM | Vmax [5]: 27.6 U/mg

fructosyl amino acid oxidase from Phaeosphaeria nodorum (PnFPOX, SEQ ID NO: 1) variant N56A (Parastagonospora nodorum SN15; N56A)
Km [6]: 74 µM | Km [7]: 1600 µM | Km [8]: 92 µM | Km [9]: 86 µM

B1: fructosyl amino acid oxidase from Pichia sp. N1-1 (N1-1 FAOD), wild type, SEQ ID NO: 2 (Pichia sp. N1-1) (protein)
chain: MESIIIVGAGTFGLSTALQLARDGYKNIKCFDKFPVPSEIAAGNDSNKIFHYDYVAPLAKPNSKERLSLEALHLWKTDPVYKPYYHPVGFILAASSDAPLLHDKEYYEELQKNGLRNYRYISTPEEFREYLPILKGPLPNWRGYVLDGDNGWLHARDSLKSAYEECKRLGVEFVFGDDGEIVELLNENGKLTGIRARSGAIFSAQKYVLSSGANAVTLLNFQRQLEGKCFTLAHFKVTDEEAKAFKSLPVLFNAEKGFFFEADENNEIKICNEYPGFTHTNESGESIPLYRMEIPLESALEIRQYLKETMPQFADRPFTKTRICWCTDSPDMQLILCTHPEYTNLIVASGDSGNSFKIMPIIGKYVSKVVTKGDKGLDPEDKECWKWRPETWDKRGQVRWGGRYRVADLNEIEEWVSVENPTPHKLE
notes: 427 aa
Km ([10]; other: crude preparation): 2640 µM | Vmax ([10]; other: crude preparation): 0.71 U/mg | Km ([10]; other: purified enzyme): 4800 µM | Vmax ([10]; other: purified enzyme): 9.3 U/mg | Km ([11]; other: crude preparation): 3220 µM | Vmax ([11]; other: crude preparation): 0.60 U/mg | Km ([11]; other: purified enzyme): 4600 µM | Vmax ([11]; other: purified enzyme): 9.8 U/mg

B2: fructosyl amino acid oxidase from Pichia sp. N1-1 (N1-1 FAOD, SEQ ID NO: 2) variant N47A (Pichia sp. N1-1; N47A) (protein)
chain: B1 chain with N47A
notes: crude and purified
Km ([12]; other: crude preparation): 9130 µM | Vmax ([12]; other: crude preparation): 0.82 U/mg | Km ([12]; other: purified enzyme): 6200 µM | Vmax ([12]; other: purified enzyme): 6.0 U/mg | Km ([13]; other: crude preparation): 1420 µM | Vmax ([13]; other: crude preparation): 0.11 U/mg | Km ([13]; other: purified enzyme): 2200 µM | Vmax ([13]; other: purified enzyme): 1.4 U/mg
